The target in series [1] is T1, His6Sumo-tagged TPR2 TPD (rice, UniProt Q5NBT9 1-209).
T1 sequence (looked up): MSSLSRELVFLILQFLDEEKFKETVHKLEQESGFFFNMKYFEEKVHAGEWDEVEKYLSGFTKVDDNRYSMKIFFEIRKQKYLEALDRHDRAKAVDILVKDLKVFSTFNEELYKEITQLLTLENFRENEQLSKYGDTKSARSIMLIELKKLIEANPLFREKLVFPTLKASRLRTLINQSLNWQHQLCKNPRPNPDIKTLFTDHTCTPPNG
The series is described as follows: AlphaScreen or HTRF. On the technique in general: Bead proximity is the source of the signal in Alpha formats.

The series “crystal structure” concerns the molecule itself. The series is described as follows: crystal structure.
Another series addresses T2, His6Sumo-TPR2 TPD L198A (rice, UniProt Q5NBT9 1-209, L198A).
T2 sequence (looked up): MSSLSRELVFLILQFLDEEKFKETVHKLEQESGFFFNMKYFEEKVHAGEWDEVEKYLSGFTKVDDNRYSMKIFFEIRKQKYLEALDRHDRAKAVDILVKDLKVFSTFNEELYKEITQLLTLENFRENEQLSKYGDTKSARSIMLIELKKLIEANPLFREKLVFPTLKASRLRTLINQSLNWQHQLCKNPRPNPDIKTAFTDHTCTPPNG
The series can be described thus: AlphaScreen or HTRF.

In series [2] the target is T3, His6Sumo-TPR2 TPD N176H/Y68R (rice, UniProt Q5NBT9 1-209, N176H | Y68R).
T3 sequence (looked up): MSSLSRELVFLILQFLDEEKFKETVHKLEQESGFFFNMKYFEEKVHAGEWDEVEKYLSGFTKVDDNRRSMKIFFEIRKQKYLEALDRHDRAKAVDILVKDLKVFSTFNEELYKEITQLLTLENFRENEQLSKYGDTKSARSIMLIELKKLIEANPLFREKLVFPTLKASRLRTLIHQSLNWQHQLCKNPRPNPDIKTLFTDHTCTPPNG
The series can be described thus: AlphaScreen or HTRF.

In series [3] the target is T1, His6Sumo-tagged TPR2 TPD. The series is described as follows: AlphaScreen or HTRF. This is another data set of the same source.
The target of series [4] is T4, His6Sumo-TPR2 TPD L179A/I195A (rice, UniProt Q5NBT9 1-209, L179A | I195A).
T4 sequence (looked up): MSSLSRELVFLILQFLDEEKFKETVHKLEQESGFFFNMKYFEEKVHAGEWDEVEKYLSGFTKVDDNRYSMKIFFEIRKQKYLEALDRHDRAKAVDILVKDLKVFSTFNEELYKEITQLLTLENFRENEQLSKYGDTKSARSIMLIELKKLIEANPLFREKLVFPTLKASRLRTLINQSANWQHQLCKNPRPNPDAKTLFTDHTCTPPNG
The series can be described thus: AlphaScreen or HTRF.

Series [5] has as its target T5, His6Sumo-TPR2 TPD N176H/Y68A (rice, UniProt Q5NBT9 1-209, N176H | Y68A).
T5 sequence (looked up): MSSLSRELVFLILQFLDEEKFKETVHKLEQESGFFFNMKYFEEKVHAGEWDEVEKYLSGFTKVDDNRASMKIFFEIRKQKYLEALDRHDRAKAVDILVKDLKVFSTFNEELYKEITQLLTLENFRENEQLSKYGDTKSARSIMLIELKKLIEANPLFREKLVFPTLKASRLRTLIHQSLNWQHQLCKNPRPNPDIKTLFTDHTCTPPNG
The series is described as follows: AlphaScreen or HTRF.

In series [6] the target is T6, His6Sumo-TPR2 TPD N176H/R67A (rice, UniProt Q5NBT9 1-209, N176H | R67A).
T6 sequence (looked up): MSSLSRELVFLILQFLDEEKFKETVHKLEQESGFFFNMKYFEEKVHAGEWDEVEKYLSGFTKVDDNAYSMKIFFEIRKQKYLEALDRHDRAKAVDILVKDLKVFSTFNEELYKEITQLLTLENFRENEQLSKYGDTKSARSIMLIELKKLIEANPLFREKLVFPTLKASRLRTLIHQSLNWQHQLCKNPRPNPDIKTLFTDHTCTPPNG
The series can be described thus: AlphaScreen or HTRF.

Another series deals with T7, His6Sumo-TPR2 TPD W181A (rice, UniProt Q5NBT9 1-209, W181A).
T7 sequence (looked up): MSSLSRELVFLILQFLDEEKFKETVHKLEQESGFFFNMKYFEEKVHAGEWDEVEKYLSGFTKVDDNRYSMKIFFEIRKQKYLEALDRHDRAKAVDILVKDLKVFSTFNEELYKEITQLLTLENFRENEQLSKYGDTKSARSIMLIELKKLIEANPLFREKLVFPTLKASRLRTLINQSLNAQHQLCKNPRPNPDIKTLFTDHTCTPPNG
The series can be described thus: AlphaScreen or HTRF.

For series [7], the target named is T8, His6Sumo-TPR2 TPD L111A/L130A (rice, UniProt Q5NBT9 1-209, L111A | L130A).
T8 sequence (looked up): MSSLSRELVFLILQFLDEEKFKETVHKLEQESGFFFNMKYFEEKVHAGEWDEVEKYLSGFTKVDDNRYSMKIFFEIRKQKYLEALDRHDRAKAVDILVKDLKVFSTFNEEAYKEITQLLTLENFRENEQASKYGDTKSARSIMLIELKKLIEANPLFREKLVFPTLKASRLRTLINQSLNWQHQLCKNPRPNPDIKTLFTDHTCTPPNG
The series can be described thus: AlphaScreen or HTRF.

Another series concerns the target T9, His6Sumo-TPR2 TPD N180A (rice, UniProt Q5NBT9 1-209, N180A).
T9 sequence (looked up): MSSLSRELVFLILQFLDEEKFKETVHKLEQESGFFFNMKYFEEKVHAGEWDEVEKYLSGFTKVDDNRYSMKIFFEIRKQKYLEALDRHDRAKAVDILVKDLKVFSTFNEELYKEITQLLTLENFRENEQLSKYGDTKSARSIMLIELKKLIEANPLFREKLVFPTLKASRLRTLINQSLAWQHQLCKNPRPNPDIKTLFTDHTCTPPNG
The series is described as follows: AlphaScreen or HTRF.

Series [8] concerns the target T10, His6Sumo-TPR2 TPD N176H/K71A (rice, UniProt Q5NBT9 1-209, N176H | K71A).
T10 sequence (looked up): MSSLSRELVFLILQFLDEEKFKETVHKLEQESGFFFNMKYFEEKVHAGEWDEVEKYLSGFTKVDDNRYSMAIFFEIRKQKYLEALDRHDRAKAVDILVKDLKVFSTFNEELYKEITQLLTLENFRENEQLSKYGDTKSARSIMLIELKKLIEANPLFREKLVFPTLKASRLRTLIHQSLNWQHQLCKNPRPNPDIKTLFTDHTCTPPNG
The series is described as follows: AlphaScreen or HTRF.

Ends that are not written are not given here. Where only a bound is given, the exact number is not on record here.

B1: D53 EAR-2 peptide L799A (peptide, UniProt Q2RBP2 794-804, looked up)
peptide: DNLIYADLNLQ
On to B1, for which the IC50 in the series with His6Sumo-tagged TPR2 TPD [1] is 14.3 µM.

B2: D53 EAR-2 peptide Q804A (peptide, UniProt Q2RBP2 794-804, looked up)
peptide: DNLIYLDLNLA
As to B2, the “fold increase of the strength of the interaction against wild-type EAR-2” value with His6Sumo-tagged TPR2 TPD [1] is > 3 fold.

B3: TPR2 TPD, TPR2(1–209), untagged (domain or fragment, rice, UniProt Q5NBT9 1-209, looked up)
chain: MSSLSRELVFLILQFLDEEKFKETVHKLEQESGFFFNMKYFEEKVHAGEWDEVEKYLSGFTKVDDNRYSMKIFFEIRKQKYLEALDRHDRAKAVDILVKDLKVFSTFNEELYKEITQLLTLENFRENEQLSKYGDTKSARSIMLIELKKLIEANPLFREKLVFPTLKASRLRTLINQSLNWQHQLCKNPRPNPDIKTLFTDHTCTPPNG
In the case of B3, the “stoichiometry N” value in the series “crystal structure” came out at 4.

B4: TPR2 TPD L111A/L130A, untagged (domain or fragment, rice, UniProt Q5NBT9 1-209, looked up)
chain: MSSLSRELVFLILQFLDEEKFKETVHKLEQESGFFFNMKYFEEKVHAGEWDEVEKYLSGFTKVDDNRYSMKIFFEIRKQKYLEALDRHDRAKAVDILVKDLKVFSTFNEEAYKEITQLLTLENFRENEQASKYGDTKSARSIMLIELKKLIEANPLFREKLVFPTLKASRLRTLINQSLNWQHQLCKNPRPNPDIKTLFTDHTCTPPNG
Take B4: in “crystal structure”, the binding result is “binds”.

B5: Biotinylated D53 EAR-2 peptide, D53(794–808) (peptide, UniProt Q2RBP2 794-808, looked up)
peptide: DNLIYLDLNLQDWDD
modifications: also: biotinylated, site not given here
Consider B5, for which the binding result (with His6Sumo-TPR2 TPD L198A; in series [2]; with His6Sumo-tagged TPR2 TPD [3]; in series [4]; in [5]; in series [6]) was “binds” throughout. Moreover, the binding result (with His6Sumo-TPR2 TPD W181A; in series [7]; with His6Sumo-TPR2 TPD N180A; in series [8]) was “binds” in each case.

The term IC50 denotes the point on the concentration scale where inhibition reaches its midpoint. By stoichiometry N is commonly meant a count of units in the complex or per binding partner.

These data come from publication PMC5457145 (Science Advances, 2017).
